# From patent US8394929B2, “Nogo receptor-mediated blockade of axonal growth” (Yale University, priority 2000, dated 2013)
# Like-named read-outs stand apart in the source and are kept apart here.
# T1: mouse NgR (Mus musculus, UniProt Q99PI8)
# T1 construct: expressed in transfected cells; host or cells: COS-7
# T1 sequence (Q99PI8 27-473): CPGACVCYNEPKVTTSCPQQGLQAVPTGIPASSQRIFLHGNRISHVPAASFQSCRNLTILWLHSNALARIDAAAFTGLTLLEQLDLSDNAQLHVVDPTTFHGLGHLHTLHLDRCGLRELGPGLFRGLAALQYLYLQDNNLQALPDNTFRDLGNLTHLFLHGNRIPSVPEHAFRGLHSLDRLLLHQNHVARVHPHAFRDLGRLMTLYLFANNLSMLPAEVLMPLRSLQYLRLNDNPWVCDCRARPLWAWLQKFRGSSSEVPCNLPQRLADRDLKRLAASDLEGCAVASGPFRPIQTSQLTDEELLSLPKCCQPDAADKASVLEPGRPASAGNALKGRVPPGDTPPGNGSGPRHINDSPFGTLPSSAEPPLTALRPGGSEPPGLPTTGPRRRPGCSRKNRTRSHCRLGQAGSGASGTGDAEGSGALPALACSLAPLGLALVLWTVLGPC
# B1: GST-Nogo: GST fusion protein of the 66 amino acid lumenal-extracellular fragment of Nogo-A, expressed in E. coli (protein)
# chain: RIYKGVIQAIQKSDEGHPFRAYLESEVAISEELVQKYSNSALGHVNCTIKELRRLFLVDDLVDSLK
# modifications: also: GST fusion protein
# notes: GST fusion protein of the 66 amino acid lumenal-extracellular fragment of Nogo-A, expressed in E. coli
# B2: NgR-ecto: secreted fragment of amino acid residues 1-348 of the murine NgR, in HEK293T conditioned medium (protein)
# chain: CPGACVCYNEPKVTTSCPQQGLQAVPTGIPASSQRIFLHGNRISHVPAASFQSCRNLTILWLHSNALARIDAAAFTGLTLLEQLDLSDNAQLHVVDPTTFHGLGHLHTLHLDRCGLRELGPGLFRGLAALQYLYLQDNNLQALPDNTFRDLGNLTHLFLHGNRIPSVPEHAFRGLHSLDRLLLHQNHVARVHPHAFRDLGRLMTLYLFANNLSMLPAEVLMPLRSLQYLRLNDNPWVCDCRARPLWAWLQKFRGSSSEVPCNLPQRLADRDLKRLAASDLEGCAVASGPFRPIQTSQLTDEELLSLPKCCQPDAADKASVLE
# modifications: left off: small tags and cut ends
# notes: secreted fragment of amino acid residues 1-348 of the murine NgR, in HEK293T conditioned medium
# Tests used:
# [1] = tested on: GST-Nogo-induced growth cone collapse; test: Blockade of Nogo-induced growth cone collapse in chick DRG cultures; type: cell-based; details: GST-Nogo / Nogo-66 as collapsing agent
# Description: (§1) For all experiments involving cell culture, the following methods were employed. The culture of embryonic chick E10 and E12 dorsal root ganglion explants and dissociated neurons utilized methods described for E7 dorsal root ganglion cultures (Takahashi et al., (1998) Nature Neurosci. 1, 487-493; Takahashi et al., (1999) Cell 99, 59-69; Goshima et al., (1995) Nature 376, 509-514; Jin & Strittmatter, (1997) J. Neurosci. […]). NGF-differentiated PC12 cells were cultured as described (Strittmatter et al., (1994) J. Neurosci. 14, 2327-2338). Embryonic spinal cord explants (rat E10 or chick E5) were cultured for 7-14 days in the presence of PDGF-AA to induce differentiation of some cells into mature oligodendrocytes (Vartanian et al., (1999) Proc. Natl. Acad. Sci. USA 96, 731-735). The procedure for growth cone collapse assays is identical to that for analysis of Sema3A-induced growth cone collapse (Takahashi et al., (1998) Nature Neurosci. 1, 487-493; Takahashi et al., (1999) Cell 99, 59-69; Goshima et al., (1995) Nature 376, 509-514; Jin & Strittmatter, (1997) J. Neurosci. 17, 6256-6263). The method for analysis of total neurite outgrowth has also been described (Goshima et al., (1995) Nature 376, 509-514; Jin & Strittmatter, (1997) J. Neurosci. 17, 6256-6263; Strittmatter et al., (1994) J. Neurosci. 14, 2327-2338). In outgrowth assays, proteins and peptides were added one hour after plating to minimize any effect on the total number of adherent cells. To test the effect of substrate-bound GST or GST-Nogo, the protein solutions were dried on poly-L-lysine coated glass, washed and then coated with laminin. For E12 cultures, the neuronal identity of cells was verified by staining with anti-neurofilament antibodies (2H3, Develomental Studies Hybridoma Bank) and neurites were traced by observation of rhodamine-phalloidin staining of F-actin in processes.
# In the growth cone collapse assay, the response to Nogo was measured in the presence of various potential antagonistic peptides. […] This blockade supports the hypothesis that Nogo is a primary inhibitory component of CNS myelin.
# For further testing, a synthetic peptide containing amino acid residues #1055-1094 of hNgR, acetylated at the […] was used [hereinafter “Peptide 140”]. […] Antagonist of Nogo-66 inhibitory activity may act by competing for, and thereby blocking NgR binding sites. To determine the antagonistic activity of Peptide 140, the above synthetic form of the peptide was added to E12 chick DRG explant cultures approximately 10 min before application of various concentrations of GST-NogoA (residues #1055-1120), TPA or Sema3A. 30 min later, cultures were fixed and growth cone collapse was assessed following staining with rhodamine-phalloidin.
# [2] = tested on: chick dorsal root ganglion neurons; test: Neurite outgrowth assay in chick DRG neurons; type: cell-based
# Description: as §1
# For neurite outgrowth assays, plastic chamber slides were coated with 100 μg ml^−1 poly-L-lysine, washed, and dried. 3 μl drops of PBS containing GST-Nogo-66 were spotted and dried. Slides were then rinsed and coated with 10 μg ml fs24^−1 laminin before addition of dissociated E12 chick DRGs. AP-fusion proteins were added at the time of cell plating. Cultures were grown for 5-7 h after which neurite outgrowth was assessed.
# [3] = tested on: GST-Nogo-66 inhibition of neurite outgrowth; test: Blockade of Nogo-induced inhibition of neurite outgrowth in chick DRG neurons; type: cell-based
# Description: as §1
# Peptide 140 was tested for its ability to neutralize neurite outgrowth inhibition caused by the addition of GST fused to residues #1055-1120 of hNogoA (designated Nogo-66 in FIG. 16e). Plastic chamber slides were coated with 100 μg ml^−1 poly-L-lysine, washed, and dried. 3 μl drops of PBS containing GST-hNogoA(residues #1055-1120) were spotted and dried. Slides were then rinsed and coated with 10 μg ml fs24^−1 laminin before addition of dissociated E12 chick DRGs. Peptide 140 was added at the time of cell plating. Cultures were grown for 5-7 h after which neurite outgrowth was assessed.
# Although the role of the GPI anchor may be to regulate NgR cellular compartmentalization, another possible role for the GPI linkage is to provide a NgR cleavage site. Cleaving NgR could serve to affect hNogo-A (1055-1120) signaling by rendering a neuron insensitive to hNogo-A (1055-1120) and by releasing soluble NgR that could then act on adjacent cells to modulate hNogo-A (1055-1120) signaling. To determine if soluble mNgR modulates hNogo-A (1055-1120)-dependent inhibition, a soluble mNgR was generated by inserting a truncated cDNA encoding mNgR residues 1-348 in frame with a myc-His carboxy tag into pcDNA3.1. The resulting plasmid expressing mNgREcto was transfected into HEK293T cells, and conditioned media containing mNgREcto protein was collected. To test the effect of mNgREcto on Nogo signaling, E13 dissociated DRGs were plated in the presence of hNogo-A (1055-1120) or myelin. The inhibitors were presented in either soluble or substrate-bound forms. For neurite outgrowth assays on hNogo-A (1055-1120) or myelin substrates, Permanox chamber slides were coated with 100μ, fs24 g ml^−1 poly-L-Lysine, washed, and then 3-μl drops of phosphate-buffered saline (hereinafter “PBS”) containing 0, 10, 50, or 150 ng of GST-hNogo-A (1055-1120) or myelin were spotted and dried. GST-hNogo-A (1055-1120) and myelin were prepared as previously described (GrandPre et al., supra; Fournier et al., J. Cell Biol. 149:411-421, 2000). After three PBS washes, slides were coated with 10 μg ml^−1 laminin. […]
# [4] = target: T1, mouse NgR; test: AP-fusion protein binding to COS-7 cells expressing mouse NgR
# [5] = soluble protein or peptide added to culture
Molecule,blockade of Nogo-induced growth cone collapse (in words) [1],"neurite/axon outgrowth (in words) [2, 5]",blockade of Nogo-induced neurite outgrowth inhibition (in words) [3],blockade of Nogo-induced neurite outgrowth inhibition (in words) ([3]; listed as 2-41 fragment),displacement of AP-Nogo (in words) [4],"neurite/axon outgrowth (in words) ([2]; soluble protein or peptide added to culture, listed as Nogo-66)",neurite/axon outgrowth (in words) ([2]; substrate-bound / coated surfaces),"neurite/axon outgrowth (in words) ([2]; substrate-bound / coated surfaces, listed as GST-hNogoA (residues #1055-1120))",blockade of Nogo-induced growth cone collapse (in words) ([1]; listed as NgR ectodomain protein),blockade of Nogo-induced growth cone collapse (in words) ([1]; listed as mNgR ectodomain protein),"reduction of binding of AP-Nogo-66 ([4]; 0.5 nM AP-Nogo-66, NgR-ecto conditioned medium, COS-7 cells expressing full length NgR)",blockade of Nogo-induced neurite outgrowth inhibition (in words) ([3]; listed as NgREcto)
"Peptide 140: synthetic peptide of amino acids #1055-1094 of the human NogoA protein, acetylated and amidated at the termini (Ac-RIYKGVIQAIQKSDEGHPFRAYLESEVAISEELVQKYSNS-NH2; UniProt Q9NQC3 1055-1094, looked up, fragment)",significantly blocks growth cone collapse,no observable effect on neurite outgrowth,extensive outgrowth is observed,–,–,–,–,–,–,–,–,–
"Pep2-41: 2-41 fragment of the 66 amino acid region of Nogo, acetylated and amidated at the termini (Ac-RIYKGVIQAIQKSDEGHPFRAYLESEVAISEELVQKYSNS-NH2)",abolishes GST-Nogo-induced growth cone collapse,–,can reverse the inhibition of neurite outgrowth,blocks,–,–,–,–,–,–,–,–
B1,–,blocked,–,–,displaces AP-Nogo,nearly abolishes axonal extension,reduced to undetectable levels,dramatically reduces growth,–,–,–,–
B2,prevents Nogo-66-induced growth cone collapse,–,blocks Nogo-66-induced inhibition of neurite outgrowth,–,–,–,–,–,blocked,blocked,80%,partially reversed
